Data from article PMC2197187 (Acta Crystallographica Section F: Structural Biology and …, 2006).

How the values were obtained:
[1] = biological target: the molecule itself; test: mass spectrometry
[2] = biological target: the molecule itself; test: SEC

B1: Sso6206, recombinant, His tag cleaved by TEV protease (natural protein, Sulfolobus solfataricus P2)
chain: GAMAIRRLVLDVLKPIRGTSIVDLAERISKLDGVEGVNISVTDMDVETMGLMIIIEGTSLNFDDIRKMLEEEGCAIHSIDEVVSGNRIIEGKIKDDL
[1]
  stoichiometry N: ≤ 6
[2]
  stoichiometry N: > 10 monomers per protomer
